These results are taken from patent publication US6541008 (UNIVERSITY OF OTAGO, dated 2003).

The target in one experiment is T1, VEGFR-2-Ig (human, UniProt P35968 20-764).
T1 construct: extracellular domain; also called soluble Ig-fusion protein containing the extracellular domain of human VEGFR-2; not shown: Fc portion of human IgG1
Briefly: precipitation of 35S-labeled conditioned medium with receptor-Ig on protein A-Sepharose, SDS-PAGE, phosphorimager. The protocol: (§1) To further assess the interactions between ORFV2-VEGF and the VEGFRs, ORFV2-VEGF was tested for its capacity to bind to soluble Ig-fusion proteins containing the extracellular domains of human VEGFR-1, VEGFR-2 and VEGFR-3. The fusion proteins, designated VEGFR-1-Ig, VEGFR-2-Ig and VEGFR-3-Ig, were transiently expressed in 293 EBNA cells. All Ig fusion proteins were human VEGFRs. Cells were incubated for 24 hours after transfection, washed with DMEM containing 0.2% bovine serum albumin and starved for 24 hours. The fusion proteins were then precipitated from the clarified conditioned medium using protein A-Sepharose beads. The beads were combined with 100 µl of 10x binding buffer (5% bovine serum albumin, 0.2% Tween 20 and 10 µg/ml heparin) and 900 µl of conditioned medium from 293 cells that had been transfected with expression plasmids encoding VEGF, VEGF-DΔNΔC,ORFV2-VEGF or control vector, then metabolically labeled with ^35S-cysteine/methionine for 4 to 16 hours. After 2.5 hours, at room temperature, the Sepharose beads were washed 3 times with binding buffer at 4° C., once with phosphate buffered saline and boiled in SDS-PAGE buffer. Labeled proteins that were bound to the Ig-fusion proteins were analyzed by SDS-PAGE under reducing conditions. Radiolabeled proteins were detected using a phosphorimager analyzer.

The target of the next experiment is T2, VEGFR-3-Ig (human, UniProt P35916 25-775).
T2 construct: extracellular domain; also called soluble Ig-fusion protein containing the extracellular domain of human VEGFR-3; not shown: Fc portion of human IgG1
T2 sequence (looked up): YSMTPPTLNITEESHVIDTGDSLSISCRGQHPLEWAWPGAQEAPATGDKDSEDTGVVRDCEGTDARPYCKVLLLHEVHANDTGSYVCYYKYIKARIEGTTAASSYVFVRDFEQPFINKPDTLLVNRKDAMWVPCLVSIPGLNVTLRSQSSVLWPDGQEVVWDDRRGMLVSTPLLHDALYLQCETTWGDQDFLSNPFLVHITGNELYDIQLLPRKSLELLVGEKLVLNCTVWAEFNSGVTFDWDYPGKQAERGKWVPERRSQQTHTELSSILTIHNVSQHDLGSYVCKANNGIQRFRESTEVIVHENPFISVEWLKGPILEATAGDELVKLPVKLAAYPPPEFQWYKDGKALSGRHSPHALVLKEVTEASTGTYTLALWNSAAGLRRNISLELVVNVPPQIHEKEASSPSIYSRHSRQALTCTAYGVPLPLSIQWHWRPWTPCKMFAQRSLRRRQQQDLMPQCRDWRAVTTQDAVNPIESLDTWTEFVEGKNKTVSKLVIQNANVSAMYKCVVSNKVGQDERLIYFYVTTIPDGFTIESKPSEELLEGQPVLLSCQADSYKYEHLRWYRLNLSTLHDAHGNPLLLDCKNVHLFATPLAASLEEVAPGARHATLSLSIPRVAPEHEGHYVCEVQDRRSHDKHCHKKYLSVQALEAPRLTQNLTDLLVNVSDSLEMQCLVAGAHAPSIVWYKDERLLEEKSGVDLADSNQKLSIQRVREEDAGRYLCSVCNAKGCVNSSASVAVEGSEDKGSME
Described as above. The protocol:
as §1

Experiment [1] concerns the target T3, VEGFR-1-Ig (human, UniProt P17948 27-758).
T3 construct: extracellular domain; also called soluble Ig-fusion protein containing the extracellular domain of human VEGFR-1; not shown: Fc portion of human IgG1
Described as above. The method, then:
as §1

The target of experiment [2] is T3, VEGFR-1-Ig. Briefly: not described; told in Example 3 with the receptor-Ig precipitations.
For experiment [3], the target named is chimeric receptor consisting of the extracellular domain of mouse VEGFR-2 and the transmembrane and … (mouse, UniProt P35918 20-762; P14753 250-507, limits assumed). Nature of the experiment: cell-based or functional assay.
Sequence of chimeric receptor consisting of the extracellular domain of mouse VEGFR-2 and the transmembrane and … (P35918 other isoform, or with tags, fused parts or gaps mutant limits assumed): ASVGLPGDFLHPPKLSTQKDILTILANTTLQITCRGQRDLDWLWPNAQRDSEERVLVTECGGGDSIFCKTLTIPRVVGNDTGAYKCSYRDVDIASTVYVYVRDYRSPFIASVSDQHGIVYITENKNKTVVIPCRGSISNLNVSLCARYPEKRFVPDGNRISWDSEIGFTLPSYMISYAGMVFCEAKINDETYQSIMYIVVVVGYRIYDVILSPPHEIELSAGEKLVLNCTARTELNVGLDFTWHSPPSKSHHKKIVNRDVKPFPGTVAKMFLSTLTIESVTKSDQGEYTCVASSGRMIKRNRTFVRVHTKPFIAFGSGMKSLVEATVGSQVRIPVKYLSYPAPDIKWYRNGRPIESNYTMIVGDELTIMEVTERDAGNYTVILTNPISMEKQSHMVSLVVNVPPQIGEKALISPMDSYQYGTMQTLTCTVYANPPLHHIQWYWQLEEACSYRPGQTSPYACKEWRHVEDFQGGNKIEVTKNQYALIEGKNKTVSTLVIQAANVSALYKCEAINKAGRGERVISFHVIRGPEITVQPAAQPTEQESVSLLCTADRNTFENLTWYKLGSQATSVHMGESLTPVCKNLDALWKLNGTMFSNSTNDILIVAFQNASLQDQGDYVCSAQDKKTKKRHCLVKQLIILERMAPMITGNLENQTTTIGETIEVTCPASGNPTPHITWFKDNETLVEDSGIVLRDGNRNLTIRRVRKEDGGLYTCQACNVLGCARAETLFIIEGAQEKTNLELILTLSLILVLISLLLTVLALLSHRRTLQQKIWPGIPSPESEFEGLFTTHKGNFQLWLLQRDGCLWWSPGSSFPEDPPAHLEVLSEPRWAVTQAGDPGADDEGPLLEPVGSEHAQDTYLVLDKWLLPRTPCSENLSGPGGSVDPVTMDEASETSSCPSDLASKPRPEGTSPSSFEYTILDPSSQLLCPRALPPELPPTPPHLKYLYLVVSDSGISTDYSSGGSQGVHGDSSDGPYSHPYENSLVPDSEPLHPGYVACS

T3 sequence (P17948 27-758): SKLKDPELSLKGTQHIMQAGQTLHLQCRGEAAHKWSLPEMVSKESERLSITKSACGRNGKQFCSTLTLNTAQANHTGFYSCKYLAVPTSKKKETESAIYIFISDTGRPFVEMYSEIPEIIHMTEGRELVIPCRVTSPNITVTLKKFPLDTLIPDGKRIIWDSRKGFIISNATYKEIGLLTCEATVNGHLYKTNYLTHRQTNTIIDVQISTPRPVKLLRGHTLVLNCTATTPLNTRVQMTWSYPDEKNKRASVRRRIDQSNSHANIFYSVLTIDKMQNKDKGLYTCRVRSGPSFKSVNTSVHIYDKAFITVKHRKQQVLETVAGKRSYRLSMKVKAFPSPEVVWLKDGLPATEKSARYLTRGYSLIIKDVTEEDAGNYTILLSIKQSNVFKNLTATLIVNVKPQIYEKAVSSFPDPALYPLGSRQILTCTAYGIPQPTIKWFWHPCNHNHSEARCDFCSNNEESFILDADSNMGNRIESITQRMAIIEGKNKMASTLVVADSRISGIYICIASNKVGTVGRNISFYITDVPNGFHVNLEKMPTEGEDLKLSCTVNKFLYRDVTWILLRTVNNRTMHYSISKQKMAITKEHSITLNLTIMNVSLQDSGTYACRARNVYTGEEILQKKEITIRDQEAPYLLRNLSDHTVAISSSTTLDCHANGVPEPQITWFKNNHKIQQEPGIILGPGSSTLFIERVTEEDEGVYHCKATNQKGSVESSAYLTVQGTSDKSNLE
T1 sequence (P35968 20-764): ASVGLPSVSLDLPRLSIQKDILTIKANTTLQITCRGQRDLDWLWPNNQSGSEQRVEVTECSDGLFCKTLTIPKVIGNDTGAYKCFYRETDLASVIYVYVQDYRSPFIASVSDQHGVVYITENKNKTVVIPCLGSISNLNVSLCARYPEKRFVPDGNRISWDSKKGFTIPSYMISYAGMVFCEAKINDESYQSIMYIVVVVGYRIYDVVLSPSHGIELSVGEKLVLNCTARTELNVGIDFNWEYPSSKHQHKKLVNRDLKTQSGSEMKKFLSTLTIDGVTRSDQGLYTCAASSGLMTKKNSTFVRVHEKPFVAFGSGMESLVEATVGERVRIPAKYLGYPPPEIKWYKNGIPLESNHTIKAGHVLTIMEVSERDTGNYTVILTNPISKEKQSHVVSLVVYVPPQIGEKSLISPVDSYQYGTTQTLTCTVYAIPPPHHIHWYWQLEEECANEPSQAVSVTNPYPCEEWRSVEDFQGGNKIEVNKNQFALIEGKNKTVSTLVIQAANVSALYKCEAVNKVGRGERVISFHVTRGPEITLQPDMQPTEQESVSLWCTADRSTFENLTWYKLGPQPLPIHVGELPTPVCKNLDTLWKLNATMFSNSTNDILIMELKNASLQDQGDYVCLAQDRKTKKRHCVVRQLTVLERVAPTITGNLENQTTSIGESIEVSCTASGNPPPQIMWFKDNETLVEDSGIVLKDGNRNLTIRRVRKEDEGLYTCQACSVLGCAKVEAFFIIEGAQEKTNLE

B1: mouse VEGF164 (ligand, UniProt Q00731-2 27-190, looked up)
chain: APTTEGEQKSHEVIKFMDVYQRSYCRPIETLVDIFQEYPDEIEYIFKPSCVPLMRCAGCCNDEALECVPTSESNITMQIMRIKPHQSQHIGEMSFLQHSRCECRPKKDRTKPENHCEPCSERRKHLFVQDPQTCKCSCKNTDSRCKARQLELNERTCRCDKPRR
For the molecule B1, the binding result with VEGFR-2-Ig is “binds”; with VEGFR-3-Ig, “no binding”; with VEGFR-1-Ig [1] it was “binds”.

B2: FLAG-tagged NZ10 (ligand)
chain: DSTKTWSEVFESSKCKPRPTVVPVGEAHPELTSQRFNPQCVTVMRCGGCCNDESLECVPTEEANVTMQLMGASVSGGNGMQHLIFVEHKKCDCKPRLTTTPPTTTRPPRRRR
notes: Disulfide-linked homodimer, secreted from 293EBNA-1 cells and purified on M2-gel; also called ORFV10-VEGF; not shown: FLAG octapeptide at the C-terminus
With B2, the binding result in the experiment with VEGFR-1-Ig [2] is “no binding”.

B3: FLAG-tagged ORFV2-VEGF (ligand)
chain: DSNTKGWSEVLKGSECKPRPIVVPVSETHPELTSQRFNPPCVTLMRCGGCCNDESLECVPTEEVNVTMELLGASGSGSNGMQRLSFVEHKKCDCRPRFTTTPPTTTRPPRRRR
notes: Disulfide-linked homodimer, glycosylated; Expressed in COS or 293EBNA cells; also called NZ2; ORVF2-VEGF; not shown: FLAG octapeptide at the C-terminus
With B3, the binding result with VEGFR-2-Ig was “binds”; in the experiment with VEGFR-3-Ig it was “no binding”; in the experiment with VEGFR-1-Ig [1], “no binding”. In addition, in experiment [3], the “potency in the Ba/F3 VEGFR-2-EpoR bioassay compared to mouse VEGF” value is ~4 fold less potent than mouse VEGF.
